According to patent publication US20220249653A1:

Biological target: CD40L (human) (UniProt P29965)
Assay: cell-based or functional assay

Sequence of UniProt P29965 (P29965 whole entry): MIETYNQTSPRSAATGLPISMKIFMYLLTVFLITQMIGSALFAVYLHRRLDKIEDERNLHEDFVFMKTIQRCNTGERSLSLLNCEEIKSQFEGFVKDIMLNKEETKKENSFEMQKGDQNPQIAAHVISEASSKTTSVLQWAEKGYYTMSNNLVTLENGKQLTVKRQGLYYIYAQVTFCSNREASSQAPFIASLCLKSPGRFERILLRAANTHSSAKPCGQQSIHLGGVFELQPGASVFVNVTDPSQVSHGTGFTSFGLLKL

Substance “CD40L blocking antibody (clone MK13A4; Enzo Life Sciences Cat #ALX-805-037-C100)” has an abrogation of intracellular p24 expression of 90.8%, an inhibition of CD4 downregulation (flow cytometry of MDC1/SEB-activated CD4+ T cells) of 87.7% and a reduction in HIV-1 RNA content in the day 7 co-culture supernatants measured by qRT-PCR of 94.1%.
